The text below walks through data of paper PMC3505971 (Nucleic Acids Research, 2012).

Series [1] deals with T1, Sa Hfq (Staphylococcus aureus, UniProt A0A0H3JV59 1-77). As to the kind of experiment: fluorescence polarization. Background: Fluorescence polarisation rises when a labelled molecule tumbles more slowly, as on binding a larger partner.
Series [2] concerns the target T1, Sa Hfq. Kind of series: fluorescence polarization. This is another data set of the same source.
A further series concerns the target Sa Hfq(K33A) (Staphylococcus aureus, UniProt A0A0H3JV59 1-77, K33A). As to the kind of experiment: fluorescence polarization.
For a further series, the target named is Ec Hfq (Escherichia coli, UniProt P0A6X3 1-102). As to the kind of experiment: fluorescence polarization.
The series “crystal structure” deals with the molecule itself. As to the kind of experiment: crystal structure.

What is called Kd is the concentration at which binding is half-saturated. For orientation: stoichiometry N means a count of units in the complex or per binding partner.

The molecule ACACACA (ssRNA) [(AC)3A] returned an equilibrium dissociation constant (Kd) with Sa Hfq [1] of 5.8 ± 7.3 nM.

For the molecule AAAAAAG (ssRNA) [A6G], the binding result with Sa Hfq [2] was “binds”.

For the molecule UUUUUU (ssRNA) [U6], the values for the dissociation constant (Kd) in the series with Sa Hfq [1] and with Sa Hfq(K33A) were 69.8 ± 7 nM and 72.7 ± 21.9 nM, respectively.

As to AUUUUUG (ssRNA) [AU5G], the binding result with Sa Hfq [2] is “binds”.

For AAAAAAAAAAAAAAAAAAAAAAAAAAA (ssRNA) [A27], the Kd with Ec Hfq came out at 0.85 ± 0.08 nM; with Sa Hfq [1], 109 ± 13 nM.

With AAAAAAAAAAAAAAAA (ssRNA) [A16], the values for the Kd with Ec Hfq and with Sa Hfq [1] were 0.4 ± 0.5 nM and 4.2 ± 0.5 nM, respectively.

As to GGAGGAGGAGGAGGAGGAGGAGGAGGA (ssRNA) [(GGA)9], in the series with Sa Hfq [1], the equilibrium dissociation constant (Kd) stood at 350 nM.

With AGAGAGA (ssRNA) [(AG)3A], the equilibrium dissociation constant (Kd) in the series with Sa Hfq [1] was determined as 3.5 ± 0.3 nM; with Sa Hfq(K33A), 11.9 ± 3 nM.

Consider AUAUAUA (ssRNA) [(AU)3A], for which the Kd in the series with Sa Hfq [1] is 2.7 ± 2.3 nM; with Sa Hfq(K33A), 309 ± 40.2 nM.

B1: Staphylococcus aureus Hfq (natural protein)
chain: MIANENIQDKALENFKANQTEVTVFFLNGFQMKGVIEEYDKYVVSLNSQGKQHLIYKHAISTYTVETEGQASTESEE
Consider B1, for which the “stoichiometry N” value in “crystal structure” worked out at 6.

As for AAAAAAA (ssRNA) [(AA)3A = A7], the figures for the Kd with Sa Hfq [1] and in the series with Sa Hfq(K33A) were 19.5 ± 6.4 nM and 406 ± 112 nM, respectively.

As for GGAGGA (ssRNA) [(GGA)2], the affinity in the series with Sa Hfq [1], expressed as Kd, was 450 nM.
